From US5830699 come the findings set out here.

This assay addresses HA-SOK-1 (human).

Substance “catalytic subunit of protein phosphatase 2A (enzyme)” yielded an SOK-1 kinase activity of 40%.
